Assay results from IntAct's records for PubMed 17698606.

B1: S phase cyclin A-associated protein in the endoplasmic reticulum (Homo sapiens), Q9BY12 (parent)
chain: MMASFQRSNSHDKVRRIVAEEGRTARNLIAWSVPLESKDDDGKPKCQTGGKSKRTIQGTHKTTKQSTAVDCKITSSTTGDKHFDKSPTKTRHPRKIDLRARYWAFLFDNLRRAVDEIYVTCESDQSVVECKEVLMMLDNYVRDFKALIDWIQLQEKLEKTDAQSRPTSLAWEVKKMSPGRHVIPSPSTDRINVTSNARRSLNFGGSTGTVPAPRLAPTGVSWADKVKAHHTGSTASSEITPAQSCPPMTVQKASRKNERKDAEGWETVQRGRPIRSRSTAVMPKVSLATEATRSKDDSDKENVCLLPDESIQKGQFVGDGTSNTIESHPKDSLHSCDHPLAEKTQFTVSTLDDVKNSGSIRDNYVRTSEISAVHIDTECVSVMLQAGTPPLQVNEEKFPAEKARIENEMDPSDISNSMAEVLAKKEELADRLEKANEEAIASAIAEEEQLTREIEAEENNDINIETDNDSDFSASMGSGSVSFCGMSMDWNDVLADYEARESWRQNTSWGDIVEEEPARPPGHGIHMHEKLSSPSRKRTIAESKKKHEEKQMKAQQLREKLREEKTLKLQKLLEREKDVRKWKEELLDQRRRMMEEKLLHAEFKREVQLQAIVKKAQEEEAKVNEIAFINTLEAQNKRHDVLSKLKEYEQRLNELQEERQRRQEEKQARDEAVQERKRALEAERQARVEELLMKRKEQEARIEQQRQEKEKAREDAARERARDREERLAALTAAQQEAMEELQKKIQLKHDESIRRHMEQIEQRKEKAAELSSGRHANTDYAPKLTPYERKKQCSLCNVLISSEVYLFSHVKGRKHQQAVRENTSIQGRELSDEEVEHLSLKKYIIDIVVESTAPAEALKDGEERQKNKKKAKKIKARMNFRAKEYESLMETKNSGSDSPYKAKLQRLAKDLLKQVQVQDSGSWANNKVSALDRTLGEITRILEKENVADQIAFQAAGGLTALEHILQAVVPATNVNTVLRIPPKSLCNAINVYNLTCNNCSENCSDVLFSNKITFLMDLLIHQLTVYVPDENNTILGRNTNKQVFEGLTTGLLKVSAVVLGCLIANRPDGNCQPATPKIPTQEMKNKPSQGDPFNNRVQDLISYVVNMGLIDKLCACFLSVQGPVDENPKMAIFLQHAAGLLHAMCTLCFAVTGRSYSIFDNNRQDPTGLTAALQATDLAGVLHMLYCVLFHGTILDPSTASPKENYTQNTIQVAIQSLRFFNSFAALHLPAFQSIVGAEGLSLAFRHMASSLLGHCSQVSCESLLHEVIVCVGYFTVNHPDNQVIVQSGRHPTVLQKLCQLPFQYFSDPRLIKVLFPSLIAACYNNHQNKIILEQEMSCVLLATFIQDLAQTPGQAENQPYQPKGKCLGSQDYLELANRFPQQAWEEARQFFLKKEKK

Variants of: B1
Details: with cdk2_human CDK2, P24941

| Variant | effect of a mutation on the interaction |
| --- | --- |
| R26A;N27A;L28A | with no effect |
| R199A;S200A;L201A | disrupting interaction strength |
| R678A;L680A | with no effect |
